Results reported in PMC10922565 (Cell chemical biology, 2023).
One block for each binder: values may come before it.

How the values were obtained:
Test in all cases: flow cytometry on cells
[1] = target: mouse TrkB expressed on REN cells (Mus musculus, UniProt P15209)
[2] = target: mouse TfR-1 expressed on REN cells (Mus musculus, UniProt Q62351)
[3] = target: mouse CD98hc expressed on REN cells (Mus musculus, UniProt P10852-2)

mouse TfR-1 expressed on REN cells, sequence (Q62351 whole entry): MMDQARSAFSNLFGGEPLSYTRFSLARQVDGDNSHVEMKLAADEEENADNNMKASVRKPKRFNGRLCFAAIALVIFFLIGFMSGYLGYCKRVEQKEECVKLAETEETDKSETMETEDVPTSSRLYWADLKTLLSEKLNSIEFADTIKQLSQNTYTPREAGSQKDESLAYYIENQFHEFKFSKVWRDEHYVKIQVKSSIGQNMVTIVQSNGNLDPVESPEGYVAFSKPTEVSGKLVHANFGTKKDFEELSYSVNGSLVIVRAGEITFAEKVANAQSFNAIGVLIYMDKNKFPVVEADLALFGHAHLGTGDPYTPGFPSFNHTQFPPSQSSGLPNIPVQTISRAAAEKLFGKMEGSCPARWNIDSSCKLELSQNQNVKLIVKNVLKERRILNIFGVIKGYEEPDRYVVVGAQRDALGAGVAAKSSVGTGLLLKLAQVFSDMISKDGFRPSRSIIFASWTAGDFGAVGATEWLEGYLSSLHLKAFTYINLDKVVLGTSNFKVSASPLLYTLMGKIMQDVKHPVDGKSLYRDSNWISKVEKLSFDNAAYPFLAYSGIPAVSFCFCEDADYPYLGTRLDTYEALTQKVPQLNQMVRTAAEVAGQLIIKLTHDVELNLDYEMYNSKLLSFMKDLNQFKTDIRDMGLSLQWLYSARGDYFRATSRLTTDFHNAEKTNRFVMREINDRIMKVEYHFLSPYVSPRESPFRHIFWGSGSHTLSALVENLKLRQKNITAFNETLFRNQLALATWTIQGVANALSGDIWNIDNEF
mouse TrkB expressed on REN cells, sequence (P15209 32-821): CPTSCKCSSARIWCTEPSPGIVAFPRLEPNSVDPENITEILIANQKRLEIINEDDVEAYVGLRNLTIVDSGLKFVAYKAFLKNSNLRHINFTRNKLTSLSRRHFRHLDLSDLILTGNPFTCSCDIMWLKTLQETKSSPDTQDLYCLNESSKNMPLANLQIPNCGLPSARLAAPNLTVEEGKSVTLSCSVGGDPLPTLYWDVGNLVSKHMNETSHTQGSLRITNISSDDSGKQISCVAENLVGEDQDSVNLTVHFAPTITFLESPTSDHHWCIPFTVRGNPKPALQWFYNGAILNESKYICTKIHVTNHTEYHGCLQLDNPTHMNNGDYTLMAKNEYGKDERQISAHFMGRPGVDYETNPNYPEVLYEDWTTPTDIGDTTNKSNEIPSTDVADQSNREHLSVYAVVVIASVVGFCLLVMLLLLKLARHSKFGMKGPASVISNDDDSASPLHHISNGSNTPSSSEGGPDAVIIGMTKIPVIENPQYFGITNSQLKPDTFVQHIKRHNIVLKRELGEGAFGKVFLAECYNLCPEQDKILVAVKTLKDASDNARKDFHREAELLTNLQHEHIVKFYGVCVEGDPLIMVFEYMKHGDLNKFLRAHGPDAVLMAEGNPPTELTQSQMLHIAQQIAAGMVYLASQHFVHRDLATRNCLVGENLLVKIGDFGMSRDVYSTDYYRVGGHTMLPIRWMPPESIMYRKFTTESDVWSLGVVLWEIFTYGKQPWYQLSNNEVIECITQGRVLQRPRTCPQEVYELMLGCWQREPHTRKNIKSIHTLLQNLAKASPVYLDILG

binding result [1]: binds
B1: 29D7 (TrkB-IgG) (antibody, V domains shown)
VH: EVQLVESGGGLVQPGGSLRLSCAASGYSFTAYFMNWVRQAPGKGLEWVARINPNNGDTFYTQKFKGRFTISRDNAKNSLYLQMNSLRAEDTAVYYCARRDYFGAMDYWGQGTLVTVSS
VL: DIQMTQSPSSLSASVGDRVTITCRASQTISNNLHWYQQKPGKAPKLLIKSASLAISGVPSRFSGSGSGTDFTLTISSLQPEDFATYYCQQSNSWPNTFGGGTKVEIK

EC50 [2]: 3.1 nM
B2: TfR-1 IgG (clone 8D3) (antibody, V domains shown)
VH: EVQLVESGGGLVQPGNSLTLSCVASGFTFSNYGMHWIRQAPKKGLEWIAMIYYDSSKMNYADTVKGRFTISRDNSKNTLYLEMNSLRSEDTAMYYCAVPTSHYVVDVWGQGVSVTVSS
VL: DIQMTQSPASLSASLEEIVTITCQASQDIGNWLAWYQQKPGKSPQLLIYGATSLADGVPSRFSGSRSGTQFSLKISRVQVEDIGIYYCLQAYNTPWTFGGGTKLELK

EC50 [3]: 1.9 nM
B3: CD98hc IgG (antibody, V domains shown)
VH: EVQLVESGGGLVQPGRSLKLSCAASGFTFSDYYMAWVRQAPKKGLEWVASISYEGSSIYYGDSVKGRVTISRDNAKSTLYLQMNSLRSEDTATYYCARRGYYGYKPFDYWGQGVMVTVSS
VL: DIQMTQSPASLSASVGETVTIECRASEDIYNGLAWYQQKPGKSPQLLIYNIDNLHTGVPSRFSGSGSGTQYSLKINSLQSEDVASYFCQQYYTYAYTFGAGTKLELK
